Read-outs that look alike come from different tables or passages of the source.
Assays:
[1] = biological target: TSH receptor (detergent solubilised TSH receptor preparation) (UniProt P16473); assay: TSHR coated tubes after serum G23
[2] = biological target: TSH receptor (detergent solubilised TSH receptor preparation) (UniProt P16473); assay: TSHR coated tubes after serum G52
[3] = biological target: TSH receptor (detergent solubilised TSH receptor preparation) (UniProt P16473); assay: TSHR coated tubes after serum G33
[4] = biological target: TSH receptor (detergent solubilised TSH receptor preparation) (UniProt P16473); assay: TSHR coated tubes after serum G29
[5] = biological target: TSH receptor (detergent solubilised TSH receptor preparation) (UniProt P16473); assay: 125I-TSHR immunoprecipitation; competitor TRAb of serum K3
[6] = biological target: TSH receptor (detergent solubilised TSH receptor preparation) (UniProt P16473); assay: TSHR coated tubes after serum G46
[7] = biological target: TSH receptor (detergent solubilised TSH receptor preparation) (UniProt P16473); assay: TSHR coated tubes after serum NSF 5
[8] = biological target: TSH receptor (detergent solubilised TSH receptor preparation) (UniProt P16473); assay: TSHR coated tubes after serum G36
[9] = biological target: TSH receptor (detergent solubilised TSH receptor preparation) (UniProt P16473); assay: TSHR coated tubes after serum G48
[10] = biological target: TSH receptor (detergent solubilised TSH receptor preparation) (UniProt P16473); assay: TSHR coated tubes after serum G28
[11] = biological target: TSH receptor (detergent solubilised TSH receptor preparation) (UniProt P16473); assay: TSHR coated tubes after serum G35
[12] = biological target: TSH receptor (detergent solubilised TSH receptor preparation) (UniProt P16473); assay: TSHR coated tubes after serum G44
[13] = biological target: TSH receptor (detergent solubilised TSH receptor preparation) (UniProt P16473); assay: TSHR coated tubes after serum NSF 20
[14] = biological target: TSH receptor (detergent solubilised TSH receptor preparation) (UniProt P16473); assay: TSHR coated tubes after serum G24
[15] = biological target: TSH receptor (detergent solubilised TSH receptor preparation) (UniProt P16473); assay: TSHR coated tubes after serum G40
[16] = biological target: TSH receptor (detergent solubilised TSH receptor preparation) (UniProt P16473); assay: TSHR coated tubes after serum G37
[17] = biological target: TSH receptor (detergent solubilised TSH receptor preparation) (UniProt P16473); assay: TSHR coated tubes after serum NSF 18
[18] = biological target: TSH receptor (detergent solubilised TSH receptor preparation) (UniProt P16473); assay: TSHR coated tubes after serum NSF 16
[19] = biological target: TSH receptor (detergent solubilised TSH receptor preparation) (UniProt P16473); assay: TSHR coated tubes after serum NSF 21
[20] = biological target: TSH receptor (detergent solubilised TSH receptor preparation) (UniProt P16473); assay: TSHR coated tubes after serum G43
[21] = biological target: TSH receptor (detergent solubilised TSH receptor preparation) (UniProt P16473); assay: TSHR coated tubes after serum NSF 4
[22] = biological target: TSH receptor (detergent solubilised TSH receptor preparation) (UniProt P16473); assay: TSHR coated tubes after serum G39
[23] = biological target: TSH receptor (detergent solubilised TSH receptor preparation) (UniProt P16473); assay: TSHR coated tubes after serum G50
[24] = biological target: TSH receptor (detergent solubilised TSH receptor preparation) (UniProt P16473); assay: TSHR coated tubes after serum G34
[25] = biological target: TSH receptor (detergent solubilised TSH receptor preparation) (UniProt P16473); assay: TSHR coated tubes after serum G51
[26] = biological target: TSH receptor (detergent solubilised TSH receptor preparation) (UniProt P16473); assay: TSHR coated tubes after serum NSF 26
[27] = biological target: TSH receptor (detergent solubilised TSH receptor preparation) (UniProt P16473); assay: TSHR coated tubes after serum NSF 10
[28] = biological target: TSH receptor (detergent solubilised TSH receptor preparation) (UniProt P16473); assay: TSHR coated tubes, healthy blood donor sera
[29] = biological target: TSH receptor (detergent solubilised TSH receptor preparation) (UniProt P16473); assay: TSHR coated tubes after serum G32
[30] = biological target: TSH receptor (detergent solubilised TSH receptor preparation) (UniProt P16473); assay: TSHR coated tubes after serum G47
[31] = biological target: TSH receptor (detergent solubilised TSH receptor preparation) (UniProt P16473); assay: TSHR coated tubes after serum G25
[32] = biological target: TSH receptor (detergent solubilised TSH receptor preparation) (UniProt P16473); assay: TSHR coated tubes after serum G41
[33] = biological target: TSH receptor (detergent solubilised TSH receptor preparation) (UniProt P16473); assay: TSHR coated tubes after serum G30
[34] = biological target: TSH receptor (detergent solubilised TSH receptor preparation) (UniProt P16473); assay: TSHR coated tubes after serum NSF 22
[35] = biological target: TSH receptor (detergent solubilised TSH receptor preparation) (UniProt P16473); assay: TSHR coated tubes after serum G45
[36] = biological target: TSH receptor (detergent solubilised TSH receptor preparation) (UniProt P16473); assay: TSHR coated tubes after serum G49
[37] = biological target: TSH receptor (detergent solubilised TSH receptor preparation) (UniProt P16473); assay: TSHR coated tubes after serum G31
[38] = biological target: TSH receptor (detergent solubilised TSH receptor preparation) (UniProt P16473); assay: TSHR coated tubes, healthy blood donor sera; remark: listed apart in the source
[39] = biological target: TSH receptor (detergent solubilised TSH receptor preparation) (UniProt P16473); assay: TSHR coated tubes after serum G27
[40] = biological target: TSH receptor (detergent solubilised TSH receptor preparation) (UniProt P16473); assay: TSHR coated tubes after serum G38
[41] = biological target: TSH receptor (detergent solubilised TSH receptor preparation) (UniProt P16473); assay: TSHR coated tubes after serum G26
[42] = biological target: TSH receptor (detergent solubilised TSH receptor preparation) (UniProt P16473); assay: TSHR coated tubes after serum NSF 17

Chain of TSH (thyrotrophin, thyroid stimulating hormone) (ligand) (P01223 21-132): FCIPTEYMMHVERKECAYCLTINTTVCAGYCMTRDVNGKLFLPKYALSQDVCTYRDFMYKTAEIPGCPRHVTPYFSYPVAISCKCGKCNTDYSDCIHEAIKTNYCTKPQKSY
Chain of TSH receptor (detergent solubilised TSH receptor preparation) (P16473 21-764 limits assumed): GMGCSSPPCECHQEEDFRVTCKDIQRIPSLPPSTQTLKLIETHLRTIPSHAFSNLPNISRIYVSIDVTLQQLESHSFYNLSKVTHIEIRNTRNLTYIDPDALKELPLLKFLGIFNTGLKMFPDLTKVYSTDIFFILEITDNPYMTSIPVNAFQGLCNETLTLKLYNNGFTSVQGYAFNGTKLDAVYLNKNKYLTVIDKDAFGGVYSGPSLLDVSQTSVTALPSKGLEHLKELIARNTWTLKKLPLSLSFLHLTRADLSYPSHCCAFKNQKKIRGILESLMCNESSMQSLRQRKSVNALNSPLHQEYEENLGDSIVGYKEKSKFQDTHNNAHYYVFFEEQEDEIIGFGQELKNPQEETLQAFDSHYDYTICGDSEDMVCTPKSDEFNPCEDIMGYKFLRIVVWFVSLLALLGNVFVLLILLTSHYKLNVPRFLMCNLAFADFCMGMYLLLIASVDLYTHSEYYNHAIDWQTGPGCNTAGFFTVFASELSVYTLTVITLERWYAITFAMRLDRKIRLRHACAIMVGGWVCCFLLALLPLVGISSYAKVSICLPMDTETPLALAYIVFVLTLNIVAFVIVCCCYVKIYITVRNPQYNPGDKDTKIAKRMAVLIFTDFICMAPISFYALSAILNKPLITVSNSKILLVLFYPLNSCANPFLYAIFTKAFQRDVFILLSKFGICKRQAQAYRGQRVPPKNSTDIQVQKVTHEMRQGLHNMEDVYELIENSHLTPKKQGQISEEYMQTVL

Question: “TSH (thyrotrophin, thyroid stimulating hormone) (ligand)” was tested. Which % total counts bound (% total counts added) [1] did it give?
Answer: The % total counts bound (% total counts added) was 8.9.

Question: And the % total counts bound (% total counts added) [2]?
Answer: Its % total counts bound (% total counts added) is 7.4.

Question: And the % total counts bound (% total counts added) [3]?
Answer: Its % total counts bound (% total counts added) is 6.1.

Question: And the % total counts bound (% total counts added) [4]?
Answer: The % total counts bound (% total counts added) was 8.

Question: What about the % inhibition of TRAb binding [5] of the same substance?
Answer: The % inhibition of TRAb binding was 55.4%.

Question: What about the % total counts bound (% total counts added) [6] of the same substance?
Answer: The % total counts bound (% total counts added) was 2.7.

Question: What about the % total counts bound (% total counts added) [7] of the same substance?
Answer: Its % total counts bound (% total counts added) is 12.3.

Question: What about the % total counts bound (% total counts added) [8] of the same substance?
Answer: Its % total counts bound (% total counts added) is 10.1.

Question: And the % total counts bound (% total counts added) [9]?
Answer: The % total counts bound (% total counts added) was 4.8.

Question: What about the % total counts bound (% total counts added) [10] of the same substance?
Answer: The % total counts bound (% total counts added) was 3.8.

Question: What about the % total counts bound (% total counts added) [11] of the same substance?
Answer: The % total counts bound (% total counts added) was 4.3.

Question: And the % total counts bound (% total counts added) [12]?
Answer: Its % total counts bound (% total counts added) is 12.4.

Question: And the % total counts bound (% total counts added) [13]?
Answer: The % total counts bound (% total counts added) was 12.3.

Question: What about the % total counts bound (% total counts added) [14] of the same substance?
Answer: The % total counts bound (% total counts added) was 6.9.

Question: What about the % total counts bound (% total counts added) [15] of the same substance?
Answer: The % total counts bound (% total counts added) was 7.2.

Question: What about the % total counts bound (% total counts added) [16] of the same substance?
Answer: Its % total counts bound (% total counts added) is 9.3.

Question: What about the % total counts bound (% total counts added) [17] of the same substance?
Answer: Its % total counts bound (% total counts added) is 11.2.

Question: What about the % total counts bound (% total counts added) [18] of the same substance?
Answer: Its % total counts bound (% total counts added) is 12.

Question: What about the % total counts bound (% total counts added) [19] of the same substance?
Answer: Its % total counts bound (% total counts added) is 12.3.

Question: What about the % total counts bound (% total counts added) [20] of the same substance?
Answer: Its % total counts bound (% total counts added) is 4.

Question: What about the % total counts bound (% total counts added) [21] of the same substance?
Answer: Its % total counts bound (% total counts added) is 12.5.

Question: And the % total counts bound (% total counts added) [22]?
Answer: The % total counts bound (% total counts added) was 7.9.

Question: And the % total counts bound (% total counts added) [23]?
Answer: The % total counts bound (% total counts added) was 6.3.

Question: What about the % total counts bound (% total counts added) [24] of the same substance?
Answer: The % total counts bound (% total counts added) was 7.5.

Question: And the % total counts bound (% total counts added) [25]?
Answer: The % total counts bound (% total counts added) was 7.9.

Question: And the % total counts bound (% total counts added) [26]?
Answer: The % total counts bound (% total counts added) was 12.8.

Question: What about the % total counts bound (% total counts added) [27] of the same substance?
Answer: Its % total counts bound (% total counts added) is 12.5.

Question: And the mean % total counts bound [28]?
Answer: The mean % total counts bound was 12.2%.

Question: What about the % total counts bound (% total counts added) [29] of the same substance?
Answer: Its % total counts bound (% total counts added) is 7.5.

Question: What about the % total counts bound (% total counts added) [30] of the same substance?
Answer: The % total counts bound (% total counts added) was 4.3.

Question: What about the % total counts bound (% total counts added) [31] of the same substance?
Answer: The % total counts bound (% total counts added) was 7.2.

Question: What about the % total counts bound (% total counts added) [32] of the same substance?
Answer: Its % total counts bound (% total counts added) is 10.8.

Question: And the % total counts bound (% total counts added) [33]?
Answer: The % total counts bound (% total counts added) was 5.3.

Question: What about the % total counts bound (% total counts added) [34] of the same substance?
Answer: The % total counts bound (% total counts added) was 12.4.

Question: What about the % total counts bound (% total counts added) [35] of the same substance?
Answer: The % total counts bound (% total counts added) was 3.5.

Question: And the % total counts bound (% total counts added) [36]?
Answer: The % total counts bound (% total counts added) was 6.1.

Question: What about the % total counts bound (% total counts added) [37] of the same substance?
Answer: Its % total counts bound (% total counts added) is 4.3.

Question: What about the mean % total counts bound [38] of the same substance?
Answer: Its mean % total counts bound is 12.1%.

Question: What about the % total counts bound (% total counts added) [39] of the same substance?
Answer: Its % total counts bound (% total counts added) is 7.3.

Question: What about the % total counts bound (% total counts added) [40] of the same substance?
Answer: The % total counts bound (% total counts added) was 10.

Question: What about the % total counts bound (% total counts added) [41] of the same substance?
Answer: Its % total counts bound (% total counts added) is 2.6.

Question: And the % total counts bound (% total counts added) [42]?
Answer: Its % total counts bound (% total counts added) is 11.5.
